Source: patent US20010010923A1, “MODIFIED CARBOXYPEPTIDASE” (priority 1997, published 2001)

B1: L178D: carboxypeptidase Y S1 mutant, substitution L178D (protein, UniProt P00729 112-532, looked up, variant L178D)
Carboxypeptidase Y: KIKDPKILGIDPNVTQYTGYLDVEDEDKHFFFWTFESRNDPAKDPVILWLNGGPGCSSLTGLFFELGPSSIGPDLKPIGNPYSWNSNATVIFLDQPVNVGFSYSGSSGVSNTVAAGKDVYNFLELFFDQFPEYVNKGQDFHIAGESYAGHYIPVFASEILSHKDRNFNLTSVLIGNGDTDPLTQYNYYEPMACGEGGEPSVLPSEECSAMEDSLERCLGLIESCYDSQSVWSCVPATIYCNNAQLAPYQRTGRNVYDIRKDCEGGNLCYPTLQDIDDYLNQDYVKEAVGAEVDHYESCNFDINRNFLFAGDWMKPYHTAVTDLLNQDLPILVYAGDKDFICNWLGNKAWTDVLPWKYDEEFASQKVRNWTASITDEVAGEVKSYKHFTYLRVFNGGHMVPFDVPENALSMVNEWIHGGFSL
B2: L178D + W312D: carboxypeptidase Y combination mutant L178D + W312D (protein, UniProt P00729 112-532, looked up, variant L178D W312D)
Carboxypeptidase Y: KIKDPKILGIDPNVTQYTGYLDVEDEDKHFFFWTFESRNDPAKDPVILWLNGGPGCSSLTGLFFELGPSSIGPDLKPIGNPYSWNSNATVIFLDQPVNVGFSYSGSSGVSNTVAAGKDVYNFLELFFDQFPEYVNKGQDFHIAGESYAGHYIPVFASEILSHKDRNFNLTSVLIGNGDTDPLTQYNYYEPMACGEGGEPSVLPSEECSAMEDSLERCLGLIESCYDSQSVWSCVPATIYCNNAQLAPYQRTGRNVYDIRKDCEGGNLCYPTLQDIDDYLNQDYVKEAVGAEVDHYESCNFDINRNFLFAGDDMKPYHTAVTDLLNQDLPILVYAGDKDFICNWLGNKAWTDVLPWKYDEEFASQKVRNWTASITDEVAGEVKSYKHFTYLRVFNGGHMVPFDVPENALSMVNEWIHGGFSL
B3: L245E + W312N: carboxypeptidase Y combination mutant L245E + W312N (protein, UniProt P00729 112-532, looked up, variant L245E W312N)
Carboxypeptidase Y: KIKDPKILGIDPNVTQYTGYLDVEDEDKHFFFWTFESRNDPAKDPVILWLNGGPGCSSLTGLFFELGPSSIGPDLKPIGNPYSWNSNATVIFLDQPVNVGFSYSGSSGVSNTVAAGKDVYNFLELFFDQFPEYVNKGQDFHIAGESYAGHYIPVFASEILSHKDRNFNLTSVLIGNGLTDPLTQYNYYEPMACGEGGEPSVLPSEECSAMEDSLERCLGLIESCYDSQSVWSCVPATIYCNNAQEAPYQRTGRNVYDIRKDCEGGNLCYPTLQDIDDYLNQDYVKEAVGAEVDHYESCNFDINRNFLFAGDNMKPYHTAVTDLLNQDLPILVYAGDKDFICNWLGNKAWTDVLPWKYDEEFASQKVRNWTASITDEVAGEVKSYKHFTYLRVFNGGHMVPFDVPENALSMVNEWIHGGFSL
B4: W312N: carboxypeptidase Y S1 mutant, substitution W312N (protein, UniProt P00729 112-532, looked up, variant W312N)
Carboxypeptidase Y: KIKDPKILGIDPNVTQYTGYLDVEDEDKHFFFWTFESRNDPAKDPVILWLNGGPGCSSLTGLFFELGPSSIGPDLKPIGNPYSWNSNATVIFLDQPVNVGFSYSGSSGVSNTVAAGKDVYNFLELFFDQFPEYVNKGQDFHIAGESYAGHYIPVFASEILSHKDRNFNLTSVLIGNGLTDPLTQYNYYEPMACGEGGEPSVLPSEECSAMEDSLERCLGLIESCYDSQSVWSCVPATIYCNNAQLAPYQRTGRNVYDIRKDCEGGNLCYPTLQDIDDYLNQDYVKEAVGAEVDHYESCNFDINRNFLFAGDNMKPYHTAVTDLLNQDLPILVYAGDKDFICNWLGNKAWTDVLPWKYDEEFASQKVRNWTASITDEVAGEVKSYKHFTYLRVFNGGHMVPFDVPENALSMVNEWIHGGFSL
B5: L178S + W312N: carboxypeptidase Y combination mutant L178S + W312N (protein, UniProt P00729 112-532, looked up, variant L178S W312N)
Carboxypeptidase Y: KIKDPKILGIDPNVTQYTGYLDVEDEDKHFFFWTFESRNDPAKDPVILWLNGGPGCSSLTGLFFELGPSSIGPDLKPIGNPYSWNSNATVIFLDQPVNVGFSYSGSSGVSNTVAAGKDVYNFLELFFDQFPEYVNKGQDFHIAGESYAGHYIPVFASEILSHKDRNFNLTSVLIGNGSTDPLTQYNYYEPMACGEGGEPSVLPSEECSAMEDSLERCLGLIESCYDSQSVWSCVPATIYCNNAQLAPYQRTGRNVYDIRKDCEGGNLCYPTLQDIDDYLNQDYVKEAVGAEVDHYESCNFDINRNFLFAGDNMKPYHTAVTDLLNQDLPILVYAGDKDFICNWLGNKAWTDVLPWKYDEEFASQKVRNWTASITDEVAGEVKSYKHFTYLRVFNGGHMVPFDVPENALSMVNEWIHGGFSL
B6: L178D + W312N: carboxypeptidase Y combination mutant L178D + W312N (protein, UniProt P00729 112-532, looked up, variant L178D W312N)
Carboxypeptidase Y: KIKDPKILGIDPNVTQYTGYLDVEDEDKHFFFWTFESRNDPAKDPVILWLNGGPGCSSLTGLFFELGPSSIGPDLKPIGNPYSWNSNATVIFLDQPVNVGFSYSGSSGVSNTVAAGKDVYNFLELFFDQFPEYVNKGQDFHIAGESYAGHYIPVFASEILSHKDRNFNLTSVLIGNGDTDPLTQYNYYEPMACGEGGEPSVLPSEECSAMEDSLERCLGLIESCYDSQSVWSCVPATIYCNNAQLAPYQRTGRNVYDIRKDCEGGNLCYPTLQDIDDYLNQDYVKEAVGAEVDHYESCNFDINRNFLFAGDNMKPYHTAVTDLLNQDLPILVYAGDKDFICNWLGNKAWTDVLPWKYDEEFASQKVRNWTASITDEVAGEVKSYKHFTYLRVFNGGHMVPFDVPENALSMVNEWIHGGFSL
B7: W312L: carboxypeptidase Y S1 mutant, substitution W312L (protein, UniProt P00729 112-532, looked up, variant W312L)
Carboxypeptidase Y: KIKDPKILGIDPNVTQYTGYLDVEDEDKHFFFWTFESRNDPAKDPVILWLNGGPGCSSLTGLFFELGPSSIGPDLKPIGNPYSWNSNATVIFLDQPVNVGFSYSGSSGVSNTVAAGKDVYNFLELFFDQFPEYVNKGQDFHIAGESYAGHYIPVFASEILSHKDRNFNLTSVLIGNGLTDPLTQYNYYEPMACGEGGEPSVLPSEECSAMEDSLERCLGLIESCYDSQSVWSCVPATIYCNNAQLAPYQRTGRNVYDIRKDCEGGNLCYPTLQDIDDYLNQDYVKEAVGAEVDHYESCNFDINRNFLFAGDLMKPYHTAVTDLLNQDLPILVYAGDKDFICNWLGNKAWTDVLPWKYDEEFASQKVRNWTASITDEVAGEVKSYKHFTYLRVFNGGHMVPFDVPENALSMVNEWIHGGFSL
B8: L178A: carboxypeptidase Y S1 mutant, substitution L178A (protein, UniProt P00729 112-532, looked up, variant L178A)
Carboxypeptidase Y: KIKDPKILGIDPNVTQYTGYLDVEDEDKHFFFWTFESRNDPAKDPVILWLNGGPGCSSLTGLFFELGPSSIGPDLKPIGNPYSWNSNATVIFLDQPVNVGFSYSGSSGVSNTVAAGKDVYNFLELFFDQFPEYVNKGQDFHIAGESYAGHYIPVFASEILSHKDRNFNLTSVLIGNGATDPLTQYNYYEPMACGEGGEPSVLPSEECSAMEDSLERCLGLIESCYDSQSVWSCVPATIYCNNAQLAPYQRTGRNVYDIRKDCEGGNLCYPTLQDIDDYLNQDYVKEAVGAEVDHYESCNFDINRNFLFAGDWMKPYHTAVTDLLNQDLPILVYAGDKDFICNWLGNKAWTDVLPWKYDEEFASQKVRNWTASITDEVAGEVKSYKHFTYLRVFNGGHMVPFDVPENALSMVNEWIHGGFSL

Experiment: Transpeptidation of Bz-G-A-R-A-R-A-OH (arginine at P1) with H-Leu-NH2, Table 1
Type: biochemical
Details: [N] 375 mM H-Leu-NH2; 2mM substrate; pH 7.5; [E] 0.1 mg/mL
Method: The mutant carboxypeptidase enzvmes used in these studies were produced by site-directed mutagenesis, essentially following the procedures described in published PCT Patent Application No. WO 95/20039. In general, oligonucleotides synthesized to encode the amino acid substitution were used to produce the mutant enzymes.
Transamidation reactions were carried out generally as described in PCT Application WO 95/20039. In general, the method included dissolving the nucleophile (H-Leu-NH2, unless otherwise indicated) in 50 mM HEPES, 5 mM EDTA and adjusting the pH to 7.5, 5 μl of peptide substrate (8 mM Bz-G-A-R-A-R-A-OH, unless otherwise indicated, in methanol) was added to 190 μl nucleophile solution followed by 5 μl enzyme, […]
During the reaction, 20 μl aliquots were removed from the reaction mixture and added to 50 μl 1% trifluoroacetic acid to quench the reaction. The reactant composition was determined by HPLC using a Waters HPLC equipped with a C-18 Waters Novapac 4μ reverse phase column and various gradients of acetonitrile in 0.1% trifluoroacetic acid. The separation was monitored at 254 nm allowing the direct quantification of the products from the integrated peak areas. The composition of the reaction mixture was determined at least twvice during the reaction, the first when 20-50% (preferably 35%) of the substrate had been consumed in the reaction and the second time when 50-90% (preferably 80%) of the peptide substrate had been consumed.
The reaction products were collected and identified by amino acid analysis after acid hydrolysis using a Pharmacia Alpha Plus analyzer. Further identification was obtained by co-chromatography of authentic standard compounds.
The fraction of aminolysis (fa) was expressed as the ratio between the formed aminolysis product and the sum of all products formed. Unconsumed substrate was disregarded in the calculations.

| Molecule | fa (fraction of aminolysis) |
| --- | --- |
| B1 | 0.81 |
| B2 | 0.71 |
| B3 | 0.20 |
| B4 | 0.23 |
| B5 | 0.63 |
| B6 | 0.71 |
| B7 | 0.07 |
| B8 | 0.45 |
